The subject of the data set is Escherichia coli TOP10. The data set is described as follows: shrunken log2 fold change of peptide-encoding DNA abundance (4.5 h post-induction vs induction); higher = less antimicrobial activity (less host growth inhibition). As to conditions: time post-induction: 4.5 h; library: site-saturation at positions 5, 18, 19, 20.
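Also: peptides expressed intracellularly from a pBAD plasmid library in pooled LB shake-flask culture, induced with 0.3% L-arabinose, DNA abundance read by NGS, three biological replicates, DESeq2 with apeglm shrinkage.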

As to RRIRTRPPRLPRPRPRPRRSPRP, the “shrunken log2 fold change” value amounted to 0.318.

Consider RRIRCRPPRLPRPRPRPHWNPRP, for which the “shrunken log2 fold change” value was -0.551.

For the sequence RRIRPRPPRLPRPRPRPIPMPRP, the “shrunken log2 fold change” value is -0.0493.

In the case of RRIRSRPPRLPRPRPRPPSSPRP, the “shrunken log2 fold change” value is -0.0711.

For RRIRKRPPRLPRPRPRPSFNPRP, the “shrunken log2 fold change” value came to 0.0137.

Turning to RRIRTRPPRLPRPRPRPSSFPRP, the “shrunken log2 fold change” value was -0.284.

As for RRIRYRPPRLPRPRPRPYMFPRP, the “shrunken log2 fold change” value is -0.651.

For the sequence RRIRNRPPRLPRPRPRPLSIPRP, the “shrunken log2 fold change” value is -0.423.

As to RRIRMRPPRLPRPRPRPVVAPRP, the “shrunken log2 fold change” value was determined as 0.533.

As to RRIRSRPPRLPRPRPRPPHLPRP, the “shrunken log2 fold change” value was -0.00867.

With RRIRQRPPRLPRPRPRPQFVPRP, the “shrunken log2 fold change” value is -0.173.

Consider RRIRQRPPRLPRPRPRPKYEPRP, for which the “shrunken log2 fold change” value is 0.0304.

On to RRIRARPPRLPRPRPRPKPFPRP, for which the “shrunken log2 fold change” value was 0.0753.

In the case of RRIRTRPPRLPRPRPRPHRYPRP, the “shrunken log2 fold change” value was -0.604.

On to RRIRARPPRLPRPRPRPAMWPRP, for which the “shrunken log2 fold change” value turned out to be 0.317.

On to RRIRERPPRLPRPRPRPSRSPRP, for which the “shrunken log2 fold change” value amounted to 0.116.

Turning to RRIRNRPPRLPRPRPRPRDLPRP, the “shrunken log2 fold change” value was found to be 0.186.

Take RRIRTRPPRLPRPRPRPPWQPRP: the “shrunken log2 fold change” value is 0.698.

Regarding RRIRCRPPRLPRPRPRPHVIPRP, the “shrunken log2 fold change” value was -0.245.

For the sequence RRIRWRPPRLPRPRPRPEIEPRP, the “shrunken log2 fold change” value came out at 0.193.

For RRIRMRPPRLPRPRPRPYHPPRP, the “shrunken log2 fold change” value is -0.423.

As for RRIRNRPPRLPRPRPRPVKPPRP, the “shrunken log2 fold change” value was determined as 0.0644.

For the sequence RRIRNRPPRLPRPRPRPVTPPRP, the “shrunken log2 fold change” value stood at 0.0444.

Regarding RRIRFRPPRLPRPRPRPCAHPRP, the “shrunken log2 fold change” value was -0.197.

As to RRIRSRPPRLPRPRPRPNQYPRP, the “shrunken log2 fold change” value stood at 0.2.

Turning to RRIRNRPPRLPRPRPRPAMWPRP, the “shrunken log2 fold change” value is -0.0838.

Turning to RRIRFRPPRLPRPRPRPQMQPRP, the “shrunken log2 fold change” value is 0.203.

On to RRIRYRPPRLPRPRPRPAWVPRP, for which the “shrunken log2 fold change” value came to 0.0366.

With RRIRPRPPRLPRPRPRPFCWPRP, the “shrunken log2 fold change” value turned out to be 0.447.

Take RRIRDRPPRLPRPRPRPCAVPRP: the “shrunken log2 fold change” value came out at 0.189.

For RRIRDRPPRLPRPRPRPLPYPRP, the “shrunken log2 fold change” value is -0.0311.

Turning to RRIRVRPPRLPRPRPRPHAQPRP, the “shrunken log2 fold change” value is -0.224.

With RRIRPRPPRLPRPRPRPEKNPRP, the “shrunken log2 fold change” value turned out to be 0.101.

With RRIRVRPPRLPRPRPRPMPHPRP, the “shrunken log2 fold change” value was -0.227.

Consider RRIRRRPPRLPRPRPRPAGEPRP, for which the “shrunken log2 fold change” value worked out at 0.75.

With RRIRSRPPRLPRPRPRPMRKPRP, the “shrunken log2 fold change” value stood at 0.853.

Turning to RRIRQRPPRLPRPRPRPYIRPRP, the “shrunken log2 fold change” value is -0.197.

On to RRIRKRPPRLPRPRPRPAMQPRP, for which the “shrunken log2 fold change” value was 0.115.

With RRIRWRPPRLPRPRPRPNNNPRP, the “shrunken log2 fold change” value is -0.514.

As for RRIRRRPPRLPRPRPRPRISPRP, the “shrunken log2 fold change” value amounted to 0.482.

As to RRIRSRPPRLPRPRPRPGRDPRP, the “shrunken log2 fold change” value was determined as 0.255.

Consider RRIRRRPPRLPRPRPRPIDSPRP, for which the “shrunken log2 fold change” value was -0.0316.

For RRIRGRPPRLPRPRPRPTSIPRP, the “shrunken log2 fold change” value came out at 0.129.

With RRIRFRPPRLPRPRPRPTNQPRP, the “shrunken log2 fold change” value was -0.259.

Regarding RRIRPRPPRLPRPRPRPTRAPRP, the “shrunken log2 fold change” value came to 0.707.

For RRIRLRPPRLPRPRPRPTTHPRP, the “shrunken log2 fold change” value is -0.102.

Take RRIRGRPPRLPRPRPRPVNNPRP: the “shrunken log2 fold change” value was -0.0355.

With RRIRRRPPRLPRPRPRPGGTPRP, the “shrunken log2 fold change” value worked out at 0.245.

For the sequence RRIRWRPPRLPRPRPRPESMPRP, the “shrunken log2 fold change” value came out at 0.636.

Consider RRIRIRPPRLPRPRPRPRCMPRP, for which the “shrunken log2 fold change” value is -0.284.

RRIRFRPPRLPRPRPRPYSMPRP: the “shrunken log2 fold change” value is -0.417.

For RRIRYRPPRLPRPRPRPPEEPRP, the “shrunken log2 fold change” value was 0.0153.

Consider RRIRCRPPRLPRPRPRPPNPPRP, for which the “shrunken log2 fold change” value was 0.761.

As for RRIRKRPPRLPRPRPRPDPCPRP, the “shrunken log2 fold change” value worked out at 0.312.

For the sequence RRIRNRPPRLPRPRPRPMFPPRP, the “shrunken log2 fold change” value is -0.235.

In the case of RRIRFRPPRLPRPRPRPCKPPRP, the “shrunken log2 fold change” value is -0.109.

Regarding RRIRLRPPRLPRPRPRPYETPRP, the “shrunken log2 fold change” value was -0.0853.

Take RRIRWRPPRLPRPRPRPQVLPRP: the “shrunken log2 fold change” value is -0.0271.

Consider RRIRSRPPRLPRPRPRPNLLPRP, for which the “shrunken log2 fold change” value was -0.0918.

As for RRIRERPPRLPRPRPRPWLMPRP, the “shrunken log2 fold change” value was -0.282.

For the sequence RRIRIRPPRLPRPRPRPCDYPRP, the “shrunken log2 fold change” value is -1.01.

Turning to RRIRPRPPRLPRPRPRPQNEPRP, the “shrunken log2 fold change” value is -0.183.

Turning to RRIRGRPPRLPRPRPRPLKQPRP, the “shrunken log2 fold change” value was -0.115.

On to RRIRSRPPRLPRPRPRPEYPPRP, for which the “shrunken log2 fold change” value is -0.128.

As to RRIRIRPPRLPRPRPRPSLPPRP, the “shrunken log2 fold change” value is -0.491.

Regarding RRIRIRPPRLPRPRPRPSSMPRP, the “shrunken log2 fold change” value is -0.432.

Consider RRIRKRPPRLPRPRPRPLEKPRP, for which the “shrunken log2 fold change” value was found to be 0.219.

On to RRIRCRPPRLPRPRPRPMFGPRP, for which the “shrunken log2 fold change” value is -0.556.

Take RRIRFRPPRLPRPRPRPPPPPRP: the “shrunken log2 fold change” value amounted to 1.58.

Take RRIRNRPPRLPRPRPRPMQFPRP: the “shrunken log2 fold change” value was -0.466.

Turning to RRIRVRPPRLPRPRPRPAPPPRP, the “shrunken log2 fold change” value was 0.577.

Take RRIRARPPRLPRPRPRPPVRPRP: the “shrunken log2 fold change” value came out at 0.609.

Regarding RRIRDRPPRLPRPRPRPTVVPRP, the “shrunken log2 fold change” value is 0.149.

For RRIRKRPPRLPRPRPRPNMSPRP, the “shrunken log2 fold change” value was -0.0139.

Take RRIRHRPPRLPRPRPRPCSPPRP: the “shrunken log2 fold change” value is -0.232.

Take RRIRDRPPRLPRPRPRPCPTPRP: the “shrunken log2 fold change” value came out at 0.131.

RRIRGRPPRLPRPRPRPKYQPRP: the “shrunken log2 fold change” value came out at 0.159.

As to RRIRNRPPRLPRPRPRPQHFPRP, the “shrunken log2 fold change” value was -0.0338.

As to RRIRFRPPRLPRPRPRPISIPRP, the “shrunken log2 fold change” value was -0.697.

For the sequence RRIRFRPPRLPRPRPRPITGPRP, the “shrunken log2 fold change” value is -0.107.

Turning to RRIRDRPPRLPRPRPRPYEDPRP, the “shrunken log2 fold change” value came to 0.0115.

For RRIRMRPPRLPRPRPRPMPWPRP, the “shrunken log2 fold change” value worked out at 0.169.

Take RRIRPRPPRLPRPRPRPRCWPRP: the “shrunken log2 fold change” value is 0.689.

RRIRARPPRLPRPRPRPPRKPRP: the “shrunken log2 fold change” value came out at 1.1.

In the case of RRIRLRPPRLPRPRPRPMGDPRP, the “shrunken log2 fold change” value worked out at 0.0227.

For the sequence RRIRFRPPRLPRPRPRPKSIPRP, the “shrunken log2 fold change” value was -0.0406.

As for RRIRLRPPRLPRPRPRPDICPRP, the “shrunken log2 fold change” value is -0.102.

With RRIRQRPPRLPRPRPRPAHMPRP, the “shrunken log2 fold change” value is -0.267.

Turning to RRIRCRPPRLPRPRPRPAKMPRP, the “shrunken log2 fold change” value amounted to 0.104.

Take RRIRHRPPRLPRPRPRPGYDPRP: the “shrunken log2 fold change” value came out at 0.381.

Take RRIRKRPPRLPRPRPRPCWEPRP: the “shrunken log2 fold change” value came out at 0.0666.
